# From patent publication US20220073599A1 (Hoffmann-La Roche, published 2022)
# T1: human VEGFA-121-His (human, UniProt P15692 181-395)
# T1 construct: Prepared in-house; not shown: His tag
# T1 sequence: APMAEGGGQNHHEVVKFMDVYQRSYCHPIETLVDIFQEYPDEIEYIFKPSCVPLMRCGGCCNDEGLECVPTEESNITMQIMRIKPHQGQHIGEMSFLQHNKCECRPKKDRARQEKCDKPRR
# T2: Cyno ANG2 (cyno, UniProt A0A2K5VNX6 281-496)
# T2 construct: domain: RBD; also called cyno Ang2-RBD
# T2 sequence: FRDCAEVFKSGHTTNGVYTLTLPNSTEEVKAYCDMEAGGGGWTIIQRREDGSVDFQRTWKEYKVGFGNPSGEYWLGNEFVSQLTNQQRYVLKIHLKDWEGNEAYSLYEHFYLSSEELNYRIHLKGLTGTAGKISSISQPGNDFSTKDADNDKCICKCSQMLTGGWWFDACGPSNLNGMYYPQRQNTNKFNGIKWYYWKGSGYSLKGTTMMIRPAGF
# T3: Rabbit ANG2 (rabbit, UniProt G1T9B3 281-496)
# T3 construct: domain: RBD; also called rabbit Ang2-RBD
# T3 sequence: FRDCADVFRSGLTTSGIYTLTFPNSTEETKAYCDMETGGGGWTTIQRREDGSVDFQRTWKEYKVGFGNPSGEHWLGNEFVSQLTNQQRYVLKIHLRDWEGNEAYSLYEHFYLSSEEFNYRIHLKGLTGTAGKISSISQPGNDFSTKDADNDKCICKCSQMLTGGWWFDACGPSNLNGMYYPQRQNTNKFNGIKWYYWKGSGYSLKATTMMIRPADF
# T4: human Ang2-RBD (human, UniProt O15123 275-496, limits assumed)
# T4 construct: also called Human ANG2 (SPR); Angiopoietin 2-RBD
# T4 sequence: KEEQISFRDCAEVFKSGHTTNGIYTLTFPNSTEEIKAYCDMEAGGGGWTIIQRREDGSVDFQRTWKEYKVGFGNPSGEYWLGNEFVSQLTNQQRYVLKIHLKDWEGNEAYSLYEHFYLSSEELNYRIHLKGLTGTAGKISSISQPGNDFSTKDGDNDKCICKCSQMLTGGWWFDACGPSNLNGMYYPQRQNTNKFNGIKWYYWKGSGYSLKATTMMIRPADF
# T5: Pig ANG2 (pig, UniProt Q9BDY7 275-496, limits assumed)
# T5 construct: domain: RBD; also called pig Ang2-RBD
# T5 sequence (looked up): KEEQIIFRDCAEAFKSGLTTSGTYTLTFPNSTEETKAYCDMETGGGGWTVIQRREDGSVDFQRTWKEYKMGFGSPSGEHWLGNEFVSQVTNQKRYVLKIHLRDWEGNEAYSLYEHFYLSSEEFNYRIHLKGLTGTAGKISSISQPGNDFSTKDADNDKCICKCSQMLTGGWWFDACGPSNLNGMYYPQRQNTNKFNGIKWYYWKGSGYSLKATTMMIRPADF
# B1: bispecific anti-VEGF-A/anti-ANG2 Fab fragment P1AD9820 (Fab, V domains shown)
# VH: SEHLVESGGGLVKPGGSLRLSCATADFFEYDDMSWVRQAPGKGLEWVGSISPKGDHKYLNTKFIGRFTISRDDSKNTLYLQMNSLRAEDTAVYYCARDVGFFDWWGQGTLVTVSS
# VL: AIYMHQEPSSLSASVGDRVTITCHGSYWLNSEVAWYQQKPGKAPKLLIFDGDFKVYEVPSRFSGSGSHEDYTLTISSLQPEDFATYYCQQYRYHPYTFGHGTKVEIKR
# notes: Bispecific Fab with two paratopes in one VH/VL pair; also called P1AD9820 Fab
# Assays:
# human VEGFA-121-His = molecular target: T1, human VEGFA-121-His; assay: SPR, VEGF-A121-His captured by anti-His antibody, Fab injected, single cycle kinetics; marked outside of Biacore specification; exponent as printed
# Experimental: An anti-His capturing antibody (GE Healthcare 28995056) was immobilized to a Series S Sensor Chip C1 (GE Healthcare BR100535) using standard amine coupling chemistry resulting in a surface density of approximately 600 resonance units (RU). As running and dilution buffer, HBS-P+ (10 mM HEPES, 150 mM NaCl pH 7.4, 0.05% Surfactant P20) was used. […] A dilution series of the tested antibody (3.7-300 nM, 1:3 dilution) was successively injected for 60 s each, dissociation was monitored for 3600 s at a flow rate of 30 μl/min (single cycle kinetics). The surface was regenerated by injecting 10 mM Glycine pH 1.5 for 60 s at a flow of 5 μl/min. […] Curve fitting was performed using the 1:1 Langmuir binding model within the Biacore® evaluation software.
# Binding kinetics to human VEGF-A and human ANG2 for the candidate antibodies were assessed as described above using the indicated Fab fragments (amino acid sequence as illustrated in Table 4).
# Cyno ANG2 = molecular target: T2, Cyno ANG2; assay: SPR crossreactivity set-up, Fab captured by anti-Fab antibody, Ang2-RBD injected, 25 C
# Experimental: (§1) An anti-Fab capturing antibody (GE Healthcare 28958325) was immobilized to a Series S Sensor Chip C1 (GE Healthcare BR100535) using standard amine coupling chemistry resulting in a surface density of approximately 800 resonance units (RU). As running and dilution buffer, HBS-P+ (10 mM HEPES, 150 mM NaCl pH 7.4, 0.05% Surfactant P20) was used, the temperature of measurement was 25° C. The tested antibody was captured by injecting a 50 nM solution for 60 sec at a flow of 5 μl/min. Association was measured by injection of Ang2-RBD from the indicated species in various concentrations in solution for 180 sec at a flow of 30 μl/min (0.07 nM-50 nM, 1:3 dilution). The dissociation phase was monitored for up to 600 sec and triggered by switching from the sample solution to running buffer at a flow rate of 30 μl/min. The surface was regenerated by injection of 10 mM Glycine pH 2.1 for 60 s at a flow rate of 30 μl/min. Bulk refractive index differences were corrected by subtracting blank injections and by subtracting the response obtained from the reference flow cell without captured antibody. Curve fitting was performed using the 1:1 Langmuir binding model within the Biacore® evaluation software.
# (§2) Crossreactivity to VEGF-A and ANG2 from other species was assessed as described above in “Materials & general methods” section.
# Rabbit ANG2 = molecular target: T3, Rabbit ANG2; assay: as above
# Experimental: as §1, §2
# human Ang2-RBD = molecular target: T4, human Ang2-RBD; assay: as above
# Experimental: as §1, §2
# Pig ANG2 = molecular target: T5, Pig ANG2; assay: as above
# Experimental: as §1, §2
binder,measurement,setting,value
B1,koff,human VEGFA-121-His,5.82e-06 s⁻¹
same,Kd,Cyno ANG2,2 pM
same,koff,Cyno ANG2,1.56e-05 s⁻¹
same,kon,Cyno ANG2,9.98e+06 M⁻¹ s⁻¹
same,t1/2,Cyno ANG2,12.3 h
same,Kd,Rabbit ANG2,5 pM
same,koff,Rabbit ANG2,5.33e-05 s⁻¹
same,kon,Rabbit ANG2,9.91e+06 M⁻¹ s⁻¹
same,t1/2,Rabbit ANG2,3.62 h
same,Kd,human Ang2-RBD,3 pM
same,koff,human Ang2-RBD,2.64e-05 s⁻¹
same,kon,human Ang2-RBD,1.02e+07 M⁻¹ s⁻¹
same,t1/2,human Ang2-RBD,7.28 h
same,Kd,Pig ANG2,13 pM
same,koff,Pig ANG2,0.000105 s⁻¹
same,kon,Pig ANG2,7.82e+06 M⁻¹ s⁻¹
same,t1/2,Pig ANG2,1.83 h
